The target in data set [1] is T1, hsRosR (Halobacterium salinarum (Halobacterium …, UniProt Q9HSF4 1-116)).
T1 sequence: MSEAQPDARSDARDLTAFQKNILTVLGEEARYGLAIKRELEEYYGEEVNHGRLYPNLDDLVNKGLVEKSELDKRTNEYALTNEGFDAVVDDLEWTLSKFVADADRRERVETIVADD
As to the kind of experiment: X-ray crystallography.

Data set [2] has as its target T1, hsRosR. As to the kind of experiment: fluorescence anisotropy. Background: Polarisation of emitted light reports the rotation of a fluorescent probe.
Data set [3] concerns the target T1, hsRosR. Nature of the data set: ITC. On the technique in general: Isothermal titration calorimetry measures the heat released or taken up as one component is titrated into another.
The target in data set [4] is T1, hsRosR. As to the kind of experiment: fluorescence anisotropy. The source holds these as a separate data set.
In data set [5] the target is T1, hsRosR. As to the kind of experiment: ITC. This is another data set of the same source.
Data set [6] deals with T1, hsRosR. Nature of the data set: fluorescence anisotropy. This is another data set of the same source.
For data set [7], the target named is T1, hsRosR. As to the kind of experiment: fluorescence anisotropy. The source holds these as a separate data set.
Data set [8] addresses T1, hsRosR. Nature of the data set: fluorescence anisotropy. This is another data set of the same source.
In data set [9] the target is T1, hsRosR. As to the kind of experiment: fluorescence anisotropy. This is another data set of the same source.
In data set [10] the target is T1, hsRosR. Nature of the data set: fluorescence anisotropy. This is another data set of the same source.
The target in data set [11] is T1, hsRosR. As to the kind of experiment: X-ray crystallography. This is another data set of the same source.
The target in data set [12] is T1, hsRosR. As to the kind of experiment: X-ray crystallography. The source holds these as a separate data set.

What is called Kd is the constant that tells how readily two partners part at equilibrium. Read a low Kd as a tighter complex.

B1: S4 (28 bp) (dsDNA)
DNA 1: CCGAAGTGTAAACGCGTTGACATGTGGT
DNA 2: ACCACATGTCAACGCGTTTACACTTCGG
For the molecule B1, the binding result with hsRosR [1] was “binds”.

B2: S3 (dsDNA)
DNA 1: GCACATGTAAGTCTATTGACATGTTCTTTCCCTCG
DNA 2: CGAGGGAAAGAACATGTCAATAGACTTACATGTGC
In turn, B2 yielded a dissociation constant Kd in the data set with hsRosR [2] of 68 ± 11.3 nM.

B3: S1 (25 bp) (dsDNA)
DNA 1: GTGTAAATTGTCTGACATGTTCTTA
DNA 2: TAAGAACATGTCAGACAATTTACAC
Turning to B3, the Kd in the data set with hsRosR [3] was determined as 91 ± 3.25 nM; with hsRosR [4], 78.3 ± 8.34 nM; with hsRosR [5] it was 259 ± 9.75 nM; in the data set with hsRosR [6], 37.2 ± 2.36 nM; with hsRosR [7], 24 ± 3.37 nM; in the data set with hsRosR [8], 169 ± 30.2 nM. The dissociation constant (Kd) with hsRosR [9] was 25.9 ± 2.02 nM; with hsRosR [10], 80.2 ± 10.2 nM.

B4: S4 (35 bp) (dsDNA)
DNA 1: GCCCGAAGTGTAAACGCGTTGACATGTGGTGCTGG
DNA 2: CCAGCACCACATGTCAACGCGTTTACACTTCGGGC
Regarding B4, the Kd with hsRosR [2] is 91.6 ± 13.2 nM.

B5: S1 (35 bp) (dsDNA)
DNA 1: GCGAGGTGTAAATTGTCTGACATGTTCTTATTGGG
DNA 2: CCCAATAAGAACATGTCAGACAATTTACACCTCGC
On to B5, for which binding with hsRosR [6] was put at a Kd of 49.3 ± 6.18 nM.

B6: S2 (dsDNA)
DNA 1: GCGCTCATGTCAACCTTCTTACACTTCCTCTCCCG
DNA 2: CGGGAGAGGAAGTGTAAGAAGGTTGACATGAGCGC
As to B6, in the data set with hsRosR [2], the Kd is 60.1 ± 18.8 nM.

B7: S5 (35 bp) (dsDNA)
DNA 1: GCGAAGTGTCATCCCTCTTACATGACTTGTCTTGG
DNA 2: CCAAGACAAGTCATGTAAGAGGGATGACACTTCGC
In the case of B7, in the data set with hsRosR [2], the Kd is 99.5 ± 10.6 nM.

B8: SG (28 bp) (dsDNA)
DNA 1: GCGACGTGTATTTCCCCTGACACTAGCG
DNA 2: CGCTAGTGTCAGGGGAAATACACGTCGC
B8: the binding result with hsRosR [11] is “binds”.

B9: GS2 (second) (dsDNA)
DNA 1: TTGAATTTGTGGGGGCAGGGACAGCCCTGA
DNA 2: TCAGGGCTGTCCCTGCCCCCACAAATTCAA
In the case of B9, the binding result with hsRosR [6] is recorded as “no binding”.

B10: GS2 (first) (dsDNA)
DNA 1: ATCGGGACAATCGCGTCTCTGTCGATCG
DNA 2: CGATCGACAGAGACGCGATTGTCCCGAT
In the case of B10, the binding result with hsRosR [6] is “no binding”.

B11: GS1 (dsDNA)
DNA 1: TAATAGACAGGGAGATCGATGTCTGCTA
DNA 2: TAGCAGACATCGATCTCCCTGTCTATTA
As for B11, the binding result with hsRosR [6] is “no binding”.

B12: S5 (28 bp) (dsDNA)
DNA 1: GCGAAGTGTCATCCCTCTTACATGACTT
DNA 2: AAGTCATGTAAGAGGGATGACACTTCGC
Regarding B12, the binding result in the data set with hsRosR [12] is recorded as “binds”.

B13: GS5 (dsDNA)
DNA 1: AGCGAGGACACTGCTGGCGGTGTCGCCGTC
DNA 2: GACGGCGACACCGCCAGCAGTGTCCTCGCT
For the molecule B13, the binding result with hsRosR [6] is given as “no binding”.

B14: S1 (28 bp) (dsDNA)
DNA 1: GCGAGGTGTAAATTGTCTGACATGTTCT
DNA 2: AGAACATGTCAGACAATTTACACCTCGC
B14 showed a Kd with hsRosR [6] of 53.5 ± 6.54 nM.

The values above are taken from PMC7145548.
